Laboratory results as given in patent publication US20260184815A1 (published 2026).

B1: M11-A10 (Fab, V domains shown)
VH: EVQLLESGGGLVQPGGSLRLSCAASGFTFSNYWMMWVRQAPGKGLEWVSGIGSSGGFTSYADSVKGRFTISRDNSKNTLYLQMNSLRAEDTAVYYCAKGSYSDYGVFESWGQGTLVTVSS
VL: DIQMTQSPSSLSASVGDRVAITCRASQSIDTYLNWYQQKPGKAPKLLIYDASNLEIGVPSRFSGSGSGTDFTFIINSLQPEDVATYYCQHYLYAPYSFGQGTKLEIK
notes: HC as printed runs into CH1; also called Ml1-A10
B2: M11-E04 (Fab, V domains shown)
VH: EVQLLESGGGLVQPGGSLRLSCAASGFTFSMYHMNWVRQAPGKGLEWVSGIVSSGGVTFYADSVKGRFTISRDNSKNTLYLQMNSLRAEDTAVYYCARITTVTTGGAFDIWGQGTMVTVSS
VL: DIQMTQSPSSLSASVGDRVTITCRASQSISIYLTWYQHRPGKAPNLLIYGAATLQTGVPSRFSGSGSGTDFTLTIRGLQPEDFATYYCQQTFSLPRTFGQGTKLEIK
notes: HC as printed runs into CH1
B3: M10-A12 (Fab, V domains shown)
VH: EVQLLESGGGLVQPGGSLRLSCAASGFTFSLYLMHWVRQAPGKGLEWVSSIYSSGGFTTYADSVKGRFTISRDNSKNTLYLQMNSLRAEDTAVYYCARDTDYGMDVWGQGTTVTVSS
VL: DIQMTQSPLSLSAFVGDRVTITCRASRDISVYLNWYQLKSGKAPKLLIYGASSLQSGVPSRFSGSGSGTDFTLTITSLQPEDFATYYCQQSYSIPFTFGGGTKVETK
notes: HC as printed runs into CH1
B4: M10-A03 (Fab, V domains shown)
VH: EVQLLESGGGLVQPGGSLRLSCAASGFTFSPYPMQWVRQAPGKGLEWVSSISSSGGMTEYADSVKGRFTISRDNSKNTLYLQMNSLRAEDTAVYYCARDDYGGKGGAFDIWGQGTMVTVSS
VL: DIQMTQSPSSLSASVGDRVTITCRASQRISFYLNWFQQKPGKAPNLLIYGASSLQSGVPSRFSGSGSGTDFTLTISSLQPKDFGTYYCQQTFSTPNTFGQGTKLEIK
notes: HC as printed runs into CH1
B5: M10-D11 (Fab, V domains shown)
VH: EVQLLESGGGLVQPGGSLRLSCAASGFTFSAYPMNWVRQAPGKGLEWVSRISSSGGNTSYADSVKGRFTISRDNSKNTLYLQMNSLRAEDTAVYYCALGYLGYWGQGTLVTVSS
VL: not shown
notes: HC as printed runs into CH1
B6: M9-H02 (Fab, V domains shown)
VH: EVQLLESGGGLVQPGGSLRLSCAASGFTFSAYMMIWVRQAPGKGLEWVSVIYPSGGVTMYADSVKGRFTISRDNSKNTLYLQMNSLRAEDTAVYYCARGTVGASDAFDIWGQGTMVTVSS
VL: DIQMTQSPSSLSASVGDRVIITCRASRSIATYLNWYQQKPGKAPNLLIFGASTLQSGVPSRFSGSGSGTDFTLTISDLQPEDFATYYCQQSFSDPYTFGQGTNLEMK
notes: HC as printed runs into CH1
B7: M11-E01 (Fab, V domains shown)
VH: EVQLLESGGGLVQPGGSLRLSCAASGFTFSTYEMYWVRQAPGKGLEWVSGIGSSGGMTMYADSVKGRFTISRDNSKNTLYLQMNSLRAEDTAMYYCAREQPGIAALQFWGQGTLVTVSS
VL: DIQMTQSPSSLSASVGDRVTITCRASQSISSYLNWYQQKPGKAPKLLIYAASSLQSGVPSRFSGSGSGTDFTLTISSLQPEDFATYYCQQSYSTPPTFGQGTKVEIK
notes: HC as printed runs into CH1
B8: M9-F10 (Fab, V domains shown)
VH: EVQLLESGGGLVQPGGSLRLSCAASGFTFSDYDMEWVRQAPGKGLEWVSSISPSGGSTIYADSVKGRFTISRDNSKNTLYLQMNSLRAEDTAVYYCARQGLLTAFDIWGQGTMVTVSS
VL: DIQMTQSPSSLSASVGDRVTITCRASQSINTYLNWYQQKPGKAPKVLIHAASTLESGVPSRFSGSGSGTDFTLTISSLQPEDFATYYCQQSYSTPYTFGQGTKLEVR
notes: HC as printed runs into CH1
B9: M9-G08 (Fab, V domains shown)
VH: EVQLLESGGGLVQPGGSLRLSCAASGFTFSYYTMLWVRQAPGKGLEWVSSIYPSGGFTMYADSVKGRFTISRDNSKNTLYLQMNSLRAEDTAVYYCARVDTAMAMIDYWGQGTLVTVSS
VL: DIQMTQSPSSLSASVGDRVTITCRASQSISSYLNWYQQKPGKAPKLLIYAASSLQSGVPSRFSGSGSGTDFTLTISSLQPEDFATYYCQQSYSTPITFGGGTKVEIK
notes: HC as printed runs into CH1
B10: M10-G09 (Fab, V domains shown)
VH: EVQLLESGGGLVQPGGSLRLSCAASGFTFSQYGMQWVRQAPGKGLEWVSSIRSSGGATRYADSVKGRFTISRDNSKNTLYLQMNSLRAEDTAVYYCARDGYYDSSGYPDYWGQGTLVTVSS
VL: DIQMTQSPSSLSASVGDSVTITCRASQSISGYINWYQQKAGKAPKLLIYAASSLQSGVPSRFSGSGSGTHFTLTISSLQPEDFATYYCQQYVSYPFTFGPGTKVDIK
notes: HC as printed runs into CH1
B11: M9-C10 (Fab, V domains shown)
VH: EVQLLESGGGLVQPGGSLRLSCAASGFTFSLYPMQWVRQAPGKGLEWVSSIGSSGGMTFYADSVKGRFTISRDNSKNTLYLQMNSLRAEDTAVYYCTREVGAAGFAFDIWGQGTMVTVSS
VL: DIQMTQSPSSLSASVGDRVTITCRASQGISSYLNWYQQKPGNAPNLLIYGASSLQSGVPSRFSGSGSGTDFTLTISSLQPEDFATYYCQESYSTLFTFGPGTTVEIK
notes: HC as printed runs into CH1
B12: M10-B09 (Fab, V domains shown)
VH: EVQLLESGGGLVQPGGSLRLSCAASGFTFSWYEMSWVRQAPGKGLEWVSRIWPSGGVTMYADSVKGRFTISRDNSKNTLYLQMNSLRAEDTAVYYCTRTSITTVGMDVWGQGTTVTVSS
VL: DIQMTQSPSSLSASVGDGVTITCRASQSISTYLNWYQQRPGKAPKLLIYGASSLQSGVPSRFSGSGSGTDFTLTISSLQREDFATYYCQQSFSTPWTFGQGTRVEIK
notes: HC as printed runs into CH1; HC amber q (LqMNS) written as Q
B13: M11-E06 (Fab, V domains shown)
VH: EVQLLESGGGLVQPGGSLRLSCAASGFTFSQYAMHWVRQAPGKGLEWVSSIYPSGGFTLYADSVKGRFTISRDNSKNTLYLQMNSLRAEDTAMYYCARGGWLAGGELLNWGQGTLVTVSS
VL: DIQMTQSPSSLSASIGDRVTISCRASRGIGTYLNWYQQHAGKAPKLLIRAASSLETGVPPRFSGSGSGTDFTLTISSLQSDDFATYYCQESFTNVYNFGQGTKLEIK
notes: HC as printed runs into CH1
B14: M11-E05 (Fab, V domains shown)
VH: EVQLLESGGGLVQPGGSLRLSCAASGFTFSWYTMGWVRQAPGKGLEWVSWIYFGGLTTYADSVKGRFTISRDNSKNTLYLQMNSLRAEDTAVYYCARLGGPLDAFDIWGQGTMVTVSS
VL: DIQMTQSPSSLSASVGDTVTITCRTSQTINNYLNWYQQRPGEAPKVLIYATHTLESGVPSRFSGSGSGTDFTLTIGSLQPEDFATYYCQQSFAFPYTFGQGTKVEIT
notes: HC as printed runs into CH1
B15: M9-F08 (Fab, V domains shown)
VH: EVQLLESGGGLVQPGGSLRLSCAASGFTFSPYAMTWVRQAPGKGLEWVSVIYPSGGFTDYADSVKGRFTISRDNSKNTLYLQMNSLRAEDTAMYYCARASGSYLDAFDIWGQGTMVTVSS
VL: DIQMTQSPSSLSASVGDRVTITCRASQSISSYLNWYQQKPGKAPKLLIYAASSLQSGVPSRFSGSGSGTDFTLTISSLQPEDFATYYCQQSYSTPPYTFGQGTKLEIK
notes: HC as printed runs into CH1; LC amber q (QMTqSPS) written as Q
B16: M9-F09 (Fab, V domains shown)
VH: EVQLLESGGGLVQPGGSLRLSCAASGFTFSSYPMGWVRQAPGKGLEWVSRISSSGGMTIYADSVKGRFTISRDNSKNTLYLQMNSLRAEDTAVYYCARDDWNVGMDVWGQGTTVTVSS
VL: DIQMTQSPSSLSASVGDRVTITCRASQSISSYLNWYQQKPGKAPKLLIYAASSLQSGVPSKFSGSGSGTDYTLTISSLQPEDFATYYCQQTYTTPWTFGQGTKVEIK
notes: HC as printed runs into CH1; (as printed for M28-E01)
B17: M9-D08 (Fab, V domains shown)
VH: EVQLLESGGGLVQPGGSLRLSCAASGFTFSWYKMMWVRQAPGKGLEWVSSIYPSGGWTNYADSVKGRFTISRDNSKNTLYLQMNSLRAEDTAVYYCTRGSPWGDDAFDIWGQGTMVTVSS
VL: DIQMTQSPSSLSASVGDRVTLTCRASRTISFYLNWYQQKAGKAPELLIYGGSSLHSGVPSRFSGSGSGTDFSLTISNLQPEDIAVYYCQQSFSSPWTFGQGTKVEIK
notes: HC as printed runs into CH1
B18: M10-F09 (Fab, V domains shown)
VH: EVQLLESGGGLVQPGGSLRLSCAASGFTFSNYDMMWVRQAPGKGLEWVSYISPSGGFTRYADSVKGRFTISRDNSKNTLYLQMNSLRAEDTATYYCAKDIYYYNWGPSHYFDSWGQGTLVTVSS
VL: DIQMTQSPSSLSASVGDRVTITCRASQTIDDDLIWYQQKPGRAPKLLIYAASSLQSGVPSRFSGSGSGTDFTLTITSLQPEDFATYYCQQSYNIPRTFGQGTKLESK
notes: HC as printed runs into CH1
B19: M9-E04 (Fab, V domains shown)
VH: EVQLLESGGGLVQPGGSLRLSCAASGFTFSEYDMMWVRQAPGKGLEWVSSIGSSGGMTYYADSVKGRFTISRDNSKNTLYLQMNSLRAEDTAVYYCARDQVAAAAIDYWGQGTLVTVSS
VL: DIQMIQSPSSLSASVGDRVTITCRASQSISGYLNWYQQRSGKAPKLLIFAASNLQTGVPSRFSGSGSGTDFTLTINNLQPEDFATYYCQQSHTPPKTFGPGTKVDIK
notes: HC as printed runs into CH1
B20: M9-H03 (Fab, V domains shown)
VH: EVQLLESGGGLVQPGGSLRLSCAASGFTFSWYSMGWVRQAPGKGLEWVSYIVPSGGYTMYADSVKGRFTISRDNSKNTLYLQMNSLRAEDTAVYYCARDPGVSYYYYGMDVWGQGTTVTVSS
VL: QYELTQAPSVSVAPGQTASITCSGDKLGNRYTSWYQQKPGQSPVLVIFQDNKRPSGIPERFSGSNSGNTATLTISGTQAMDEADYYCQALDSNTYVFGTGTKVTVL
notes: HC as printed runs into CH1
B21: M10-C11 (Fab, V domains shown)
VH: EVQLLESGGGLVQPGGSLRLSCAASGFTFSMYPMMWVRQAPGKGLEWVSYISPSGGMTDYADSVKGRFTISRDNSKNTLYLQMNSLRAEDMAVYYCARVAGSSDAFDIWGQGTMVTVSS
VL: DIQMTQSPSSLSASVGDRVTITCRASQSISIYLNWYQQKPEKAPKLLIFAASTLQSGVPSRFSGSGSGTDFTLTISNLQPEDFATYYCQQSHSIPPTFGLGTKVEVK
notes: HC as printed runs into CH1
B22: M9-H04 (Fab, V domains shown)
VH: EVQLLESGGGLVQPGGSLRLSCAASGFTFSAYTMWWVRQAPGKGLEWVSSIWPSGGSTFYADSVKGRFTISRDNSKNTLYLQMNSLRAEDTAVYYCARTYDSSAGEVDYWGQGTLVTVSS
VL: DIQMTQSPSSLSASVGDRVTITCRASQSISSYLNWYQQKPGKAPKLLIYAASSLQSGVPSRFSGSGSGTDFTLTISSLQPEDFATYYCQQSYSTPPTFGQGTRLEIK
notes: HC as printed runs into CH1
B23: M10-E06 (Fab, V domains shown)
VH: EVQLLESGGGLVQPGGSLRLSCAASGFTFSLYRMFWVRQAPGKGLEWVSSIWSSGGPTMYADSVKGRFTISRDNSKNTLYLQMNSLRAEDTAVYYCAREYPSTYYFDYWGQGTLVTVSS
VL: DIQMTQSPSSLSASVGDRVTITCRASQSISTYLNWYQQKPGKAPKLLIYGASSLQSGVPSRFSGSGSGTDFTLTISSLQPEDFTIYYCQQSYSDPYTFGQGTKLDIK
notes: HC as printed runs into CH1

What follows are binders tested against T1, human plasma kallikrein (human, UniProt P03952 20-390; P03952 391-638) (assay: ELISA, biotinylated pKal signal over streptavidin background).
T1 construct: also called pKal; Human pKal
Source text: Abbreviations used: “T/B” is the ELISA signal obtained using of the “target” (biotinylated plasma kallikrein) divided by the ELISA signal of the “background” (streptavidin); both of which were coated on microtiter plates, “nd” is not determined. The symbol “q” refers to the amber suppressible stop codon (TAG), which is translated as glutamine (Q) in strains of E. coli such as the TG1 cells that were used to express the Fab fragments.

T1 sequence (P03952 20-390, chain 1 of 2): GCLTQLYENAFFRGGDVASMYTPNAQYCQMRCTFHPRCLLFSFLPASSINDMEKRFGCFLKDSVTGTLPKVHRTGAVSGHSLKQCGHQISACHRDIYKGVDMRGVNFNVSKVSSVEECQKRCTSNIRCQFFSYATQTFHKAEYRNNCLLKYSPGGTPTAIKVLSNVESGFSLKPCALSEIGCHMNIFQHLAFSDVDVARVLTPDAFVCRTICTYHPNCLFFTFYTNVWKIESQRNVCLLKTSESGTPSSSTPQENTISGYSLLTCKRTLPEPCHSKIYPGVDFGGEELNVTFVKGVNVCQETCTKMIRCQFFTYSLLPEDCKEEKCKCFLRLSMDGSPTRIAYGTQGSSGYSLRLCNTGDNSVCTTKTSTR
T1 sequence (P03952 391-638, chain 2 of 2): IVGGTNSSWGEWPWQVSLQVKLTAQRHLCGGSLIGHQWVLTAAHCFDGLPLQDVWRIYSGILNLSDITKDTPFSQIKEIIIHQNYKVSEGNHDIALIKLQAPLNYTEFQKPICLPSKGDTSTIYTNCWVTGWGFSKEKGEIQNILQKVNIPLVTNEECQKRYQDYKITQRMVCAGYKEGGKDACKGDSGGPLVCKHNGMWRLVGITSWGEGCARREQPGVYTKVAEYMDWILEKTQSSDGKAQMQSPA

| Binder | ELISA (T/B) |
| --- | --- |
| B1 | 25 T/B |
| B2 | 43.2 T/B |
| B3 | 20.8 T/B |
| B4 | 33.7 T/B |
| B5 | 6.4 T/B |
| B6 | 3.5 T/B |
| B7 | 11.7 T/B |
| B8 | 8.4 T/B |
| B9 | 4.8 T/B |
| B10 | 7.1 T/B |
| B11 | 7.8 T/B |
| B12 | 14.1 T/B |
| B13 | 12.6 T/B |
| B14 | 41.4 T/B |
| B15 | 10.9 T/B |
| B16 | 7 T/B |
| B17 | 35.9 T/B |
| B18 | 4.8 T/B |
| B19 | 18.8 T/B |
| B20 | 4.4 T/B |
| B21 | 5.3 T/B |
| B22 | 16.1 T/B |
| B23 | 32.8 T/B |
